B1: DFFB (parent)
chain: TLVEAIKEQDGREVDWEYFYGLLF
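Further: lentivirally expressed fusions sorted by FACS into six bins by GFP to DsRed ratio, PSI derived from sequencing read proportions per bin multiplied by bin number.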

Variants of B1 are the subject of this data set. Put plainly: protein stability index of a GFP-peptide fusion (GPS, HEK-293T) (PSI 1-6); higher = more stable. Particulars: c terminus: a fixed tail appended.
As for TLVEAIKEQDGREVDTEYFYGLLF [W16T], the protein stability index was determined as 3.12.

For the variant TLVEAIKEQDGREVDGEYFYGLLF [W16G], the protein stability index is 2.44. The result for TLVEAIKEQDGREVDEEYFYGLLF [W16E] reads 2.19. With TLVEAIKEQDGREVDHEYFYGLLF [W16H], the protein stability index was 1.58. The result for TLVEAIKEQDGREVDSEYFYGLLF [W16S] reads 2.84; that for TLVEAIKEQDGREVDQEYFYGLLF [W16Q], 2.17. Regarding TLVEAIKEQDGREVDREYFYGLLF [W16R], the protein stability index worked out at 2.3. For TLVEAIKEQDGREVDCEYFYGLLF [W16C], the protein stability index is 2.46. For TLVEAIKEQDGREVDLEYFYGLLF [W16L], the protein stability index came to 1.66. As to TLVEAIKEQDHREVDWEYFYGLLF [G11H], the protein stability index is 2.04. On to TLVEAIKEQDMREVDWEYFYGLLF [G11M], for which the protein stability index worked out at 2.13.

Turning to TLVEAIKEQDAREVDWEYFYGLLF [G11A], the protein stability index came out at 1.84. On to TLVEAIKEQDNREVDWEYFYGLLF [G11N], for which the protein stability index came to 2.13. Then TLVEAIKEQDFREVDWEYFYGLLF [G11F], with 1.02; and TLVEAIKEQDSREVDWEYFYGLLF [G11S], with 1.7; and TLVEAIKEQDYREVDWEYFYGLLF [G11Y], with 1.88. Consider TLVEAIKEQDTREVDWEYFYGLLF [G11T], for which the protein stability index amounted to 2.28.

Regarding TLVEAIKEQDQREVDWEYFYGLLF [G11Q], the protein stability index was 2.04. Consider TLVEAIKEQDPREVDWEYFYGLLF [G11P], for which the protein stability index stood at 2.44. Consider TLVEAIKEQDKREVDWEYFYGLLF [G11K], for which the protein stability index amounted to 1.61. TLVEAIKEQDEREVDWEYFYGLLF [G11E]: the protein stability index stood at 2.13.

For TLVEAIKEQDCREVDWEYFYGLLF [G11C], the protein stability index worked out at 2.72. Regarding TLVEAIKEQDVREVDWEYFYGLLF [G11V], the protein stability index is 2.92. For the variant TLVEAIKEQDGRNVDWEYFYGLLF [E13N], the protein stability index is 1.79. For TLVEAIKEQDGRRVDWEYFYGLLF [E13R], the protein stability index was found to be 1.81. TLVEAIKEQDGRKVDWEYFYGLLF [E13K]: the protein stability index was 3.03.

As for TLVEAIKEQDGRWVDWEYFYGLLF [E13W], the protein stability index came to 2.27. As for TLVEAIKEQDGRTVDWEYFYGLLF [E13T], the protein stability index was 1.98. As for TLVEAIKEQDGRAVDWEYFYGLLF [E13A], the protein stability index came to 1.74. On to TLVEAIKEQDGRIVDWEYFYGLLF [E13I], for which the protein stability index stood at 2.36.

With TLVEAIKEQDGRDVDWEYFYGLLF [E13D], the protein stability index was found to be 2.1. For the variant TLVEAIKEQDGRYVDWEYFYGLLF [E13Y], the protein stability index was found to be 3.29.

Consider TLVEAIKEQDGRMVDWEYFYGLLF [E13M], for which the protein stability index was found to be 2.02. Take TLVEAIKEQDGRGVDWEYFYGLLF [E13G]: the protein stability index was 3.05.

With TLVEAIKEQDGRHVDWEYFYGLLF [E13H], the protein stability index amounted to 1.84. Then TLVEAIKEQDGRCVDWEYFYGLLF [E13C], with 1.22; and TLVEAIKEQDGRVVDWEYFYGLLF [E13V], with 2.07; and TLVEAIKEQDGRSVDWEYFYGLLF [E13S], with 1.76.

On to TLVEAIKEQDGRPVDWEYFYGLLF [E13P], for which the protein stability index worked out at 1.67. TLVEAIKEQDGRLVDWEYFYGLLF [E13L]: the protein stability index was 1.57.

With TLVEAIKEQDGRFVDWEYFYGLLF [E13F], the protein stability index was determined as 1.85. As to TLVEAIKEQDGREVDWEYFMGLLF [Y20M], the protein stability index was determined as 2.64.

As for TLVEAIKEQDGREVDWEYFKGLLF [Y20K], the protein stability index turned out to be 1.6. Regarding TLVEAIKEQDGREVDWEYFWGLLF [Y20W], the protein stability index worked out at 1.72. With TLVEAIKEQDGREVDWEYFQGLLF [Y20Q], the protein stability index amounted to 2.07. Regarding TLVEAIKEQDGREVDWEYFHGLLF [Y20H], the protein stability index is 2.03. In the case of TLVEAIKEQDGREVDWEYFNGLLF [Y20N], the protein stability index amounted to 2.25. Take TLVEAIKEQDGREVDWEYFGGLLF [Y20G]: the protein stability index was 1.79. TLVEAIKEQDGREVDWEYFSGLLF [Y20S]: the protein stability index came out at 1.33. For the variant TLVEAIKEQDGREVDWEYFCGLLF [Y20C], the protein stability index stood at 1.92.

Regarding TLVEAIKEQDGREVDWEYFFGLLF [Y20F], the protein stability index is 1.93. The result for TLVEAIKEQDGREVDWEYFRGLLF [Y20R] reads 2.67.

Turning to TLVEAIKEQDGREVDWEYFLGLLF [Y20L], the protein stability index was found to be 1.53. Then TLVEAIKEQDGREVDWEYFIGLLF [Y20I], with 1.78; and TLVEAIKEQDGREVDWEYFAGLLF [Y20A], with 2.03. As to TLVEAIKEQDGREVDWEYFEGLLF [Y20E], the protein stability index was 1.67. As for TLVEAIKEQDGREVDWEYFDGLLF [Y20D], the protein stability index came to 2.36. Then TLVEAIKEQDGREVDWEYFPGLLF [Y20P], with 2.67; and TLVEAIKEQDGREVDWEYFTGLLF [Y20T], with 1.54; and TLVEAIKEQDGREVDWEYFVGLLF [Y20V], with 2.42. Consider TLVEAIKEQYGREVDWEYFYGLLF [D10Y], for which the protein stability index is 1.92. For the variant TLVEAIKEQDGREVDWEYFYWLLF [G21W], the protein stability index came to 1.83.

Take TLVEAIKEQDGREVDWEYFYLLLF [G21L]: the protein stability index came out at 1.35. Regarding TLVEAIKEQDGREVDWEYFYELLF [G21E], the protein stability index was found to be 1.93. Take TLVEAIKEQDGREVDWEYFYNLLF [G21N]: the protein stability index turned out to be 1.87. As for TLVEAIKEQDGREVDWEYFYILLF [G21I], the protein stability index turned out to be 1.34.

For the variant TLVEAIKEQDGREVDWEYFYSLLF [G21S], the protein stability index came to 2.

In the case of TLVEAIKEQDGREVDWEYFYYLLF [G21Y], the protein stability index was 1.53. As to TLVEAIKEQDGREVDWEYFYMLLF [G21M], the protein stability index was determined as 2.26. As to TLVEAIKEQDGREVDWEYFYPLLF [G21P], the protein stability index is 1.46. Turning to TLVEAIKEQDGREVDWEYFYHLLF [G21H], the protein stability index worked out at 2.37.

Take TLVEAIKEQDGREVDWEYFYVLLF [G21V]: the protein stability index turned out to be 1.08. Regarding TLVEAIKEQDGREVDWEYFYKLLF [G21K], the protein stability index worked out at 2.31.

Regarding TLVEAIKEQDGREVDWEYFYQLLF [G21Q], the protein stability index is 2.25. Regarding TLVEAIKEQDGREVDWEYFYCLLF [G21C], the protein stability index is 1.72. With TLVEAIKEQDGREVDWEYFYTLLF [G21T], the protein stability index is 1.88. As for TLVEAIKEQDGREVDWEYFYRLLF [G21R], the protein stability index amounted to 1.84. Then TLVEAIKEQDGTEVDWEYFYGLLF [R12T], with 1.92; and TLVEAIKEQDGPEVDWEYFYGLLF [R12P], with 2.16; and TLVEAIKEQDGFEVDWEYFYGLLF [R12F], with 1.48. On to TLVEAIKEQDGYEVDWEYFYGLLF [R12Y], for which the protein stability index is 2.59. Then TLVEAIKEQDGVEVDWEYFYGLLF [R12V], with 2.07; and TLVEAIKEQDGAEVDWEYFYGLLF [R12A], with 1.32; and TLVEAIKEQDGMEVDWEYFYGLLF [R12M], with 2.18. Turning to TLVEAIKEQDGEEVDWEYFYGLLF [R12E], the protein stability index was found to be 2.44. With TLVEAIKEQDGCEVDWEYFYGLLF [R12C], the protein stability index stood at 1.91. Consider TLVEAIKEQDGGEVDWEYFYGLLF [R12G], for which the protein stability index came out at 1.74. Consider TLVEAIKEQDGKEVDWEYFYGLLF [R12K], for which the protein stability index is 2.41. For TLVEAIKEQDGNEVDWEYFYGLLF [R12N], the protein stability index was 2.42. Then TLVEAIKEQDGQEVDWEYFYGLLF [R12Q], with 2.41. For the variant TLVEAIKEQDGIEVDWEYFYGLLF [R12I], the protein stability index came to 1.56. On to TLVEAIKEQDGWEVDWEYFYGLLF [R12W], for which the protein stability index was 1.72.

On to TLVEAIKEQDGHEVDWEYFYGLLF [R12H], for which the protein stability index is 2.2. Regarding TLVEAIKEQDGSEVDWEYFYGLLF [R12S], the protein stability index was 1.84.

The values are drawn from the supplement of paper PMC10567573.
